Data on 27 sequences can be found in the supplement of paper PMC12764529.

± gives the half width of the 95% confidence interval.

A short description of data set [1]: folding stability dG unfold from trypsin proteolysis; higher = more stable. In outline: (§1)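 Unfolding free energy was derived, per protease or combined, by relating Bayesian-fitted K50 values from sequencing counts to a sequence-predicted unfolded-state K50 and a shared folded-state K50. The underlying digests exposed cysteine-free mini-proteins under 80 residues, in a PA-tagged cDNA display construct, to trypsin and chymotrypsin at 11 threefold-diluted concentrations and to a no-protease condition. A filter kept only designs with AlphaFold2 dimer inter-PAE above 15.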

A short description of data set [2]: folding stability dG unfold from chymotrypsin proteolysis; higher = more stable. In outline: as §1
A short description of data set [3]: folding stability dG unfold (combined trypsin and chymotrypsin); higher = more stable. The essentials:
as §1

“SAGGSSMTVTKLPTNKTVTTRPLPSSSSVTTTTTFDPNSPVATVTTTDTSSDTSTTTTVPLGPGAFSAGGSA [r2_114_JUSTAS]”: the “folding stability dG unfold” value worked out at 0.783 ± 0.035 kcal/mol in data set [1], 0.892 ± 0.06 kcal/mol in data set [2] and 0.824 ± 0.11 kcal/mol in data set [3].
With “SAGGSSPAARRLAKRIAKLMMKKHPPGEKRTVEIELPDGVEIKATFNNNGNIDDIEIRSPDGEPIISAGGSA [r2_84_TrROS]”, the figures for the “folding stability dG unfold” value in data set [1], in data set [2] and in data set [3] were 0.771 ± 0.17 kcal/mol, 0.482 ± 0.4 kcal/mol and 0.644 ± 0.36 kcal/mol, respectively.
In the case of “SAGGSSPPTVEVSFDPASGTLTITTPDGTTTYSVKSVTVTRLPPELTLITITLEDGTVLTFELVVASAGGSA [r2_268_JUSTAS]”, the “folding stability dG unfold” value is 3.36 ± 0.15 kcal/mol in data set [1], 4.65 ± 0.063 kcal/mol in data set [2] and 4.52 ± 0.13 kcal/mol in data set [3].
As for “SAGGSSSASNISTNPTPLPEESVTVTASSDGVITVTITDPNGVPTTYTYNIPSGSIEEAIAEAISSSAGGSA [r2_298_JUSTAS]”, the “folding stability dG unfold” value in data set [1] was determined as 1.86 ± 0.059 kcal/mol; in data set [2] it was 2.06 ± 0.09 kcal/mol; in data set [3], 1.97 ± 0.094 kcal/mol.
As to “SAGGSSSLLEGLPGVVEVTVTTSLSVRPLSPEAARANPGQADRTVPLPRTTVTVTVEFPVSPAGILSAGGSA [r2_404_JUSTAS]”, the figures for the “folding stability dG unfold” value in data set [1], in data set [2] and in data set [3] were 0.509 ± 0.1 kcal/mol, 1.15 ± 0.067 kcal/mol and 0.94 ± 0.15 kcal/mol, respectively.
For the sequence “SAGGSSSSSYTLNYPDKRVNVSVSHPPSGPLNVTITVYDPNGNKTKTITSPVGSLEKAKSLLEKLLSAGGSA [r2_82_JUSTAS]”, the “folding stability dG unfold” value was 1.63 ± 0.04 kcal/mol in data set [1], 1.28 ± 0.062 kcal/mol in data set [2] and 1.45 ± 0.11 kcal/mol in data set [3].
With “SAGGSSVRISFPNGYTVEITVTEDSATITLRSPTSTETVEFPSSVQVTITGPLNQPVTFDIPSSSESAGGSA [r2_57_TrMRF]”, the figures for the “folding stability dG unfold” value in data set [1], in data set [2] and in data set [3] were 2.77 ± 0.077 kcal/mol, 2.811 ± 0.024 kcal/mol and 2.8 ± 0.057 kcal/mol, respectively.
On to “SAGGSTTITLPDGRTATVEPDPNGVERYTVPGHPGVYIEKDPSTNKLTVTTVDPSSGSPVTSVIEESAGGSA [r2_477_JUSTAS]”, for which the “folding stability dG unfold” value is 0.243 ± 0.043 kcal/mol in data set [1], -0.572 ± 0.44 kcal/mol in data set [2] and 0.0736 ± 0.15 kcal/mol in data set [3].
For the sequence “SAGGSVEEIAEELAKQPSYTKVTVTLFVDPDGTARVVITDVENGKTYTVPLPPAATPVGTLTLPVESAGGSA [r2_74_JUSTAS]”, the “folding stability dG unfold” value amounted to 1.56 ± 0.026 kcal/mol in data set [1], 1.68 ± 0.046 kcal/mol in data set [2] and 1.63 ± 0.083 kcal/mol in data set [3].
Consider “SAGGSVEELRELARKLAEELGLEVVEVEVEEREDGKVTVTVTIKGPPKVEIKLEVTENEVKITEIKPSAGGS [r8_432_TrROS_Hall]”, for which the results for the “folding stability dG unfold” value in data set [1], in data set [2] and in data set [3] were 3.36 ± 0.25 kcal/mol, 3.35 ± 0.26 kcal/mol and 3.42 ± 0.23 kcal/mol, respectively.
Regarding “SAGGSVKIKIKVPKDNPEAKKLAEKLRKLPGVKEVKVKKVKEINGYLVLEIEVEVSPEVKEKLKELLSAGGS [r16_394_TrROS_Hall]”, the “folding stability dG unfold” value in data set [1] was found to be 2.71 ± 0.25 kcal/mol; in data set [2], 2.75 ± 0.18 kcal/mol; in data set [3], 2.97 ± 0.34 kcal/mol.
Take “SAGGSVKVELKGDYLVITIPVEVPGDKDKPALLTIVIDLSPNGKPARIEMRSLETGKPLGEFTIDLSAGGSA [r2_412_TrMRF]”: the “folding stability dG unfold” value is 2.14 ± 0.099 kcal/mol in data set [1], 2.63 ± 0.04 kcal/mol in data set [2] and 2.43 ± 0.07 kcal/mol in data set [3].
With “SAGGSVRLELEGVNPETGERYRLEFELPPVPLPPVLVVPLEDLELLRRLGIPEDAAVFPELGLVVVASAGGS [r16_194_TrMRF]”, the figures for the “folding stability dG unfold” value in data set [1], in data set [2] and in data set [3] were 2.29 ± 0.082 kcal/mol, 2.76 ± 0.051 kcal/mol and 2.66 ± 0.12 kcal/mol, respectively.
Consider “SAGGSVSDIVNELKKKGIKVTSIEKTEDGTYVITTELPNGVKKEYKYSTSDPKNVAALKAAIPEELVSAGGS [r16_821_JUSTAS]”, for which the “folding stability dG unfold” value was determined as 1.44 ± 0.038 kcal/mol in data set [1], 1.19 ± 0.072 kcal/mol in data set [2] and 1.36 ± 0.066 kcal/mol in data set [3].
On to “SAGGSVTKEELEKLNVEEVAALLPEDYTVTVVPGTGVVVISAPDRTLTITHDPATGKVTLTSEVEVSAGGSA [r2_470_JUSTAS]”, for which the entries for the “folding stability dG unfold” value in data set [1], in data set [2] and in data set [3] were 1.41 ± 0.1 kcal/mol, 0.125 ± 0.21 kcal/mol and 0.797 ± 0.15 kcal/mol, respectively.
“SAGGSVVPASEPVTIPDTATGTTLTLPTPAGATITPDPATNTTTVTFTDGDRASSVTFVNGAATSASTASAG [r5_22_JUSTAS]”: the “folding stability dG unfold” value was -0.53 ± 0.098 kcal/mol in data set [1], -0.139 ± 0.21 kcal/mol in data set [2] and -0.162 ± 0.11 kcal/mol in data set [3].
For “SAGGSWIEFMIMVPYPDGKPLEDLPPEEVVDIAKTFMSDFGYKIKDINVQYNPDDGYVHVPIEIKPSAGGSA [r2_237_TrROS]”, in that order: 1.26 ± 0.074 kcal/mol, 1.09 ± 0.2 kcal/mol and 1.21 ± 0.2 kcal/mol.
Turning to “SAGGSYRVETTKTEVSEATAPDGTAYRVTTTTTVVTYPDGTRRTVTNVTITDPATGVPTSSTATTTAVSAGG [r13_133_JUSTAS]”, the results for the “folding stability dG unfold” value in data set [1], in data set [2] and in data set [3] were 2.45 ± 0.048 kcal/mol, 2.056 ± 0.017 kcal/mol and 2.25 ± 0.03 kcal/mol, respectively.
Take “SAGGTAEEIAEKVRDIFQDNGYPIEVEPRRWDPNNYVTWRMRMPGWSIEIQWDPDDLEVEIEIEPMPSAGGS [r8_157_TrROS]”: the “folding stability dG unfold” value was found to be 2.47 ± 0.073 kcal/mol in data set [1], 3.71 ± 0.11 kcal/mol in data set [2] and 3.24 ± 0.2 kcal/mol in data set [3].
Turning to “SAGGTAEEIAETIAEKFSKKNNNPNVRITVEKEPDSLRIDITFPNNGHEIEIEFEDGGIRKIEWEPYSAGGS [r16_397_TrROS]”, the results for the “folding stability dG unfold” value in data set [1], in data set [2] and in data set [3] were 0.276 ± 0.27 kcal/mol, -0.251 ± 0.85 kcal/mol and -0.269 ± 0.94 kcal/mol, respectively.
With “SAGGTAEELAKNIADNLQKAGWIKKVEVEVHPSPDGNIMVRIEIKIEPPPPPPPPKVEYDENGKPRYDSAGG [r13_957_TrROS]”, the “folding stability dG unfold” value stood at 1.04 ± 0.12 kcal/mol in data set [1], 0.662 ± 0.23 kcal/mol in data set [2] and 0.924 ± 0.39 kcal/mol in data set [3].
Turning to “SAGGTIEITFMVRTPEEAEDMADMIARMLAREHGMKVTIDDVEVHEYKDPEDGQEYYMVEFRIEIKPSAGGS [r8_171_TrROS]”, the “folding stability dG unfold” value in data set [1] is 3.23 ± 0.081 kcal/mol; in data set [2], 4.146 ± 0.04 kcal/mol; in data set [3], 3.88 ± 0.11 kcal/mol.
Take “SAGGTIMIPFDTPEQAKDIREAAKDGEPIEIRPPDGKPIKFKIKDVEVDPNSGWLVIKIPNGRTIPISAGGS [r16_254_TrROS]”: the “folding stability dG unfold” value in data set [1] is -0.179 ± 0.19 kcal/mol; in data set [2] it was 0.151 ± 0.15 kcal/mol; in data set [3], 0.0332 ± 0.097 kcal/mol.
With “SAGGTMIELKSASGKTALLPLPPGTERVEREGDKWTIYLPPEYTLTVEITAPVPPSSLFDLKVLSRKLSAGG [r19_274_JUSTAS]”, the “folding stability dG unfold” value in data set [1] came out at 0.595 ± 0.077 kcal/mol; in data set [2], 0.509 ± 0.35 kcal/mol; in data set [3], 0.734 ± 0.31 kcal/mol.
Regarding “SAGGTSYLVRLELYETSTGEPLELELPFPNLPAEEVEELAKELAKALAEPTGNDLKARVEVVPLPDESAGGS [r8_185_TrMRF]”, the results for the “folding stability dG unfold” value in data set [1], in data set [2] and in data set [3] were 0.0944 ± 0.031 kcal/mol, 0.717 ± 0.054 kcal/mol and 0.53 ± 0.052 kcal/mol, respectively.
Take “SAGGVDPSKLTPLSTREVPVDDRRLLVTTYLTPDGKPLYTVTVLDAEGRPLGSELVPPEKVSADGRLESAGG [r13_447_JUSTAS]”: the “folding stability dG unfold” value in data set [1] was -0.0975 ± 0.1 kcal/mol; in data set [2], 0.506 ± 0.11 kcal/mol; in data set [3] it was 0.334 ± 0.066 kcal/mol.
For “SAGGVEELAKELAERLREELERRLGVEKVEVVDVEVVEVDEETGTVTVRITVRLPDGELLELELELHLDSAG [r5_20_TrROS_Hall]”, in that order: 3.47 ± 0.17 kcal/mol, 3.08 ± 0.13 kcal/mol and 3.39 ± 0.15 kcal/mol.
